Biological target: Recombinant Human TNF-α/TNFSF1A (human, UniProt P01375 77-233)
Assay: cell-based or functional assay

Recombinant Human TNF-α/TNFSF1A, sequence (P01375 77-233 limits assumed): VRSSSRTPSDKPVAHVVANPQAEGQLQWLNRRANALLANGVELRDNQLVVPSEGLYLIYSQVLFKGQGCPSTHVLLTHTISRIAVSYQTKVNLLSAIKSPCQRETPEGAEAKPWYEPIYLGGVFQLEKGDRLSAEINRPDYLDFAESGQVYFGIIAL

Binder | N-Terminal VD huTNFα Neutralization Assay IC50 | C-Terminal VD huTNFα Neutralization Assay IC50
DVD2784 (bispecific antibody, IgG1) VH: EVQLVQSGAEVKKPGASVKVSCKASGYTFANYGIIWVRQAPGQGLEWMGWINTYTGKPTYAQKFQGRVTMTTDTSTSTAYMELSSLRSEDTAVYYCARKLFTTMDVTDNAMDYWGQGTTVTVSSASTKGPEVTLRESGPGLVKPTQTLTLTCTLYGFSLSTSDMGVDWIRQPPGKGLEWLAHIWWDDVKRYNPALKSRLTISKDTSKNQVVLKLTSVDPVDTATYYCARTVSSGYIYYAMDYWGQGTLVTVSS VL: DIQMTQSPSSLSASVGDRVTITCRASQDISQYLNWYQQKPGKAPKLLIYYTSRLQSGVPSRFSGSGSGTDFTLTISSLQPEDFATYFCQQGNTWPPTFGQGTKLEIKRTVAAPDIQMTQSPSSLSASVGDRVTISCRASQDIRNYLNWYQQKPGKAPKLLIFYTSKLHSGVPSRFSGSGSGTDYTLTISSLQPEDIATYYCQQGLTPPLTFGGGTKVEIKR | 6 pM | –
DVD2786 (bispecific antibody, IgG1) VH: EVQLVQSGAEVKKPGASVKVSCKASGYTFANYGIIWVRQAPGQGLEWMGWINTYTGKPTYAQKFQGRVTMTTDTSTSTAYMELSSLRSEDTAVYYCARKLFTTMDVTDNAMDYWGQGTTVTVSSASTKGPEVTLRESGPGLVKPTQTLTLTCTLYGFSLSTSDMGVDWIRQPPGKGLEWLAHIWWDDVKRYNPALKSRLTISKDTSKNQVVLKLTSVDPVDTATYYCARTVSSGYIYYAMDYWGQGTLVTVSS VL: DIQMTQSPSSLSASVGDRVTITCRASQDISQYLNWYQQKPGKAPKLLIYYTSRLQSGVPSRFSGSGSGTDFTLTISSLQPEDFATYFCQQGNTWPPTFGQGTKLEIKRTVAAPSVFIFPPDIQMTQSPSSLSASVGDRVTISCRASQDIRNYLNWYQQKPGKAPKLLIFYTSKLHSGVPSRFSGSGSGTDYTLTISSLQPEDIATYYCQQGLTPPLTFGGGTKVEIKR | 8 pM | –
DVD2787 (bispecific antibody, IgG1) VH: EVQLVQSGAEVKKPGASVKVSCKASGYTFANYGIIWVRQAPGQGLEWMGWINTYTGKPTYAQKFQGRVTMTTDTSTSTAYMELSSLRSEDTAVYYCARKLFTTMDVTDNAMDYWGQGTTVTVSSASTKGPSVFPLAPEVTLRESGPGLVKPTQTLTLTCTLYGFSLSTSDMGVDWIRQPPGKGLEWLAHIWWDDVKRYNPALKSRLTISKDTSKNQVVLKLTSVDPVDTATYYCARTVSSGYIYYAMDYWGQGTLVTVSS VL: DIQMTQSPSSLSASVGDRVTITCRASQDISQYLNWYQQKPGKAPKLLIYYTSRLQSGVPSRFSGSGSGTDFTLTISSLQPEDFATYFCQQGNTWPPTFGQGTKLEIKRTVAAPDIQMTQSPSSLSASVGDRVTISCRASQDIRNYLNWYQQKPGKAPKLLIFYTSKLHSGVPSRFSGSGSGTDYTLTISSLQPEDIATYYCQQGLTPPLTFGGGTKVEIKR | 5 pM | –
DVD2788 (bispecific antibody, IgG1) VH: EVTLRESGPGLVKPTQTLTLTCTLYGFSLSTSDMGVDWIRQPPGKGLEWLAHIWWDDVKRYNPALKSRLTISKDTSKNQVVLKLTSVDPVDTATYYCARTVSSGYIYYAMDYWGQGTLVTVSSGGGGSGGGGSEVQLVQSGAEVKKPGASVKVSCKASGYTFANYGIIWVRQAPGQGLEWMGWINTYTGKPTYAQKFQGRVTMTTDTSTSTAYMELSSLRSEDTAVYYCARKLFTTMDVTDNAMDYWGQGTTVTVSS VL: DIQMTQSPSSLSASVGDRVTISCRASQDIRNYLNWYQQKPGKAPKLLIFYTSKLHSGVPSRFSGSGSGTDYTLTISSLQPEDIATYYCQQGLTPPLTFGGGTKVEIKRGGSGGGGSGDIQMTQSPSSLSASVGDRVTITCRASQDISQYLNWYQQKPGKAPKLLIYYTSRLQSGVPSRFSGSGSGTDFTLTISSLQPEDFATYFCQQGNTWPPTFGQGTKLEIKR | – | 230 pM
DVD2789 (bispecific antibody, IgG1) VH: EVTLRESGPGLVKPTQTLTLTCTLYGFSLSTSDMGVDWIRQPPGKGLEWLAHIWWDDVKRYNPALKSRLTISKDTSKNQVVLKLTSVDPVDTATYYCARTVSSGYIYYAMDYWGQGTLVTVSSASTKGPEVQLVQSGAEVKKPGASVKVSCKASGYTFANYGIIWVRQAPGQGLEWMGWINTYTGKPTYAQKFQGRVTMTTDTSTSTAYMELSSLRSEDTAVYYCARKLFTTMDVTDNAMDYWGQGTTVTVSS VL: DIQMTQSPSSLSASVGDRVTISCRASQDIRNYLNWYQQKPGKAPKLLIFYTSKLHSGVPSRFSGSGSGTDYTLTISSLQPEDIATYYCQQGLTPPLTFGGGTKVEIKRTVAAPDIQMTQSPSSLSASVGDRVTITCRASQDISQYLNWYQQKPGKAPKLLIYYTSRLQSGVPSRFSGSGSGTDFTLTISSLQPEDFATYFCQQGNTWPPTFGQGTKLEIKR | – | 186 pM
DVD2791 (bispecific antibody, IgG1) VH: EVTLRESGPGLVKPTQTLTLTCTLYGFSLSTSDMGVDWIRQPPGKGLEWLAHIWWDDVKRYNPALKSRLTISKDTSKNQVVLKLTSVDPVDTATYYCARTVSSGYIYYAMDYWGQGTLVTVSSASTKGPEVQLVQSGAEVKKPGASVKVSCKASGYTFANYGIIWVRQAPGQGLEWMGWINTYTGKPTYAQKFQGRVTMTTDTSTSTAYMELSSLRSEDTAVYYCARKLFTTMDVTDNAMDYWGQGTTVTVSS VL: DIQMTQSPSSLSASVGDRVTISCRASQDIRNYLNWYQQKPGKAPKLLIFYTSKLHSGVPSRFSGSGSGTDYTLTISSLQPEDIATYYCQQGLTPPLTFGGGTKVEIKRTVAAPSVFIFPPDIQMTQSPSSLSASVGDRVTITCRASQDISQYLNWYQQKPGKAPKLLIYYTSRLQSGVPSRFSGSGSGTDFTLTISSLQPEDFATYFCQQGNTWPPTFGQGTKLEIKR | – | 64 pM
DVD2792 (bispecific antibody, IgG1) VH: EVTLRESGPGLVKPTQTLTLTCTLYGFSLSTSDMGVDWIRQPPGKGLEWLAHIWWDDVKRYNPALKSRLTISKDTSKNQVVLKLTSVDPVDTATYYCARTVSSGYIYYAMDYWGQGTLVTVSSASTKGPSVFPLAPEVQLVQSGAEVKKPGASVKVSCKASGYTFANYGIIWVRQAPGQGLEWMGWINTYTGKPTYAQKFQGRVTMTTDTSTSTAYMELSSLRSEDTAVYYCARKLFTTMDVTDNAMDYWGQGTTVTVSS VL: DIQMTQSPSSLSASVGDRVTISCRASQDIRNYLNWYQQKPGKAPKLLIFYTSKLHSGVPSRFSGSGSGTDYTLTISSLQPEDIATYYCQQGLTPPLTFGGGTKVEIKRTVAAPDIQMTQSPSSLSASVGDRVTITCRASQDISQYLNWYQQKPGKAPKLLIYYTSRLQSGVPSRFSGSGSGTDFTLTISSLQPEDFATYFCQQGNTWPPTFGQGTKLEIKR | – | 136 pM
DVD3011 (bispecific antibody, IgG1) VH: EVQLVQSGAEVKKPGASVKVSCKASGYTFNNYGIIWVRQAPGQGLEWMGWINTYTGKPTYAQKFQGRVTMTTDTSTSTAYMELSSLRSEDTAVYYCARKLFNTVAVTDNAMDYWGQGTTVTVSSASTKGPEVTLRESGPGLVKPTQTLTLTCTLYGFSLSTSDMGVDWIRQPPGKGLEWLAHIWWDDVKRYNPALKSRLTISKDTSKNQVVLKLTSVDPVDTATYYCARTVSSGYIYYAMDYWGQGTLVTVSS VL: DIQMTQSPSSLSASVGDRVTITCRASQDIENYLNWYQQKPGKAPKLLIYYTSRLQSGVPSRFSGSGSGTDFTLTISSLQPEDFATYFCQQGNTQPPTFGQGTKLEIKRTVAAPSVFIFPPDIQMTQSPSSLSASVGDRVTISCRASQDIRNYLNWYQQKPGKAPKLLIFYTSKLHSGVPSRFSGSGSGTDYTLTISSLQPEDIATYYCQQGLTPPLTFGGGTKVEIKR | 24 pM | –
DVD3012 (bispecific antibody, IgG1) VH: EVQLVQSGAEVKKPGASVKVSCKASGYTFNNYGIIWVRQAPGQGLEWMGWINTYTGKPTYAQKFQGRVTMTTDTSTSTAYMELSSLRSEDTAVYYCARKLFNTVAVTDNAMDYWGQGTTVTVSSASTKGPSVFPLAPEVTLRESGPGLVKPTQTLTLTCTLYGFSLSTSDMGVDWIRQPPGKGLEWLAHIWWDDVKRYNPALKSRLTISKDTSKNQVVLKLTSVDPVDTATYYCARTVSSGYIYYAMDYWGQGTLVTVSS VL: DIQMTQSPSSLSASVGDRVTITCRASQDIENYLNWYQQKPGKAPKLLIYYTSRLQSGVPSRFSGSGSGTDFTLTISSLQPEDFATYFCQQGNTQPPTFGQGTKLEIKRTVAAPDIQMTQSPSSLSASVGDRVTISCRASQDIRNYLNWYQQKPGKAPKLLIFYTSKLHSGVPSRFSGSGSGTDYTLTISSLQPEDIATYYCQQGLTPPLTFGGGTKVEIKR | 34 pM | –
DVD3013 (bispecific antibody, IgG1) VH: EVTLRESGPGLVKPTQTLTLTCTLYGFSLSTSDMGVDWIRQPPGKGLEWLAHIWWDDVKRYNPALKSRLTISKDTSKNQVVLKLTSVDPVDTATYYCARTVSSGYIYYAMDYWGQGTLVTVSSGGGGSGGGGSEVQLVQSGAEVKKPGASVKVSCKASGYTFNNYGIIWVRQAPGQGLEWMGWINTYTGKPTYAQKFQGRVTMTTDTSTSTAYMELSSLRSEDTAVYYCARKLFNTVAVTDNAMDYWGQGTTVTVSS VL: DIQMTQSPSSLSASVGDRVTISCRASQDIRNYLNWYQQKPGKAPKLLIFYTSKLHSGVPSRFSGSGSGTDYTLTISSLQPEDIATYYCQQGLTPPLTFGGGTKVEIKRGGSGGGGSGDIQMTQSPSSLSASVGDRVTITCRASQDIENYLNWYQQKPGKAPKLLIYYTSRLQSGVPSRFSGSGSGTDFTLTISSLQPEDFATYFCQQGNTQPPTFGQGTKLEIKR | – | 229 pM
DVD3014 (bispecific antibody, IgG1) VH: EVTLRESGPGLVKPTQTLTLTCTLYGFSLSTSDMGVDWIRQPPGKGLEWLAHIWWDDVKRYNPALKSRLTISKDTSKNQVVLKLTSVDPVDTATYYCARTVSSGYIYYAMDYWGQGTLVTVSSASTKGPEVQLVQSGAEVKKPGASVKVSCKASGYTFNNYGIIWVRQAPGQGLEWMGWINTYTGKPTYAQKFQGRVTMTTDTSTSTAYMELSSLRSEDTAVYYCARKLFNTVAVTDNAMDYWGQGTTVTVSS VL: DIQMTQSPSSLSASVGDRVTISCRASQDIRNYLNWYQQKPGKAPKLLIFYTSKLHSGVPSRFSGSGSGTDYTLTISSLQPEDIATYYCQQGLTPPLTFGGGTKVEIKRTVAAPDIQMTQSPSSLSASVGDRVTITCRASQDIENYLNWYQQKPGKAPKLLIYYTSRLQSGVPSRFSGSGSGTDFTLTISSLQPEDFATYFCQQGNTQPPTFGQGTKLEIKR | – | 490 pM
DVD3016 (bispecific antibody, IgG1) VH: EVTLRESGPGLVKPTQTLTLTCTLYGFSLSTSDMGVDWIRQPPGKGLEWLAHIWWDDVKRYNPALKSRLTISKDTSKNQVVLKLTSVDPVDTATYYCARTVSSGYIYYAMDYWGQGTLVTVSSASTKGPEVQLVQSGAEVKKPGASVKVSCKASGYTFNNYGIIWVRQAPGQGLEWMGWINTYTGKPTYAQKFQGRVTMTTDTSTSTAYMELSSLRSEDTAVYYCARKLFNTVAVTDNAMDYWGQGTTVTVSS VL: DIQMTQSPSSLSASVGDRVTISCRASQDIRNYLNWYQQKPGKAPKLLIFYTSKLHSGVPSRFSGSGSGTDYTLTISSLQPEDIATYYCQQGLTPPLTFGGGTKVEIKRTVAAPSVFIFPPDIQMTQSPSSLSASVGDRVTITCRASQDIENYLNWYQQKPGKAPKLLIYYTSRLQSGVPSRFSGSGSGTDFTLTISSLQPEDFATYFCQQGNTQPPTFGQGTKLEIKR | – | 148 pM
